Experimental data taken from article PMC7474647 (Proceedings of the National Academy of Sciences of the …, 2020).

Target: the molecule itself
Assay: ABEL trap-based single-molecule diffusometry

B1: alkaline phosphatase from bovine intestinal mucosa, labeled with JF646 (enzyme, UniProt P19111 20-506, looked up)
chain: LVPVEEEDPAFWNRQAAQALDVAKKLQPIQTAAKNVILFLGDGMGVPTVTATRILKGQMNGKLGPETPLAMDQFPYVALSKTYNVDRQVPDSAGTATAYLCGVKGNYRTIGVSAAARYNQCKTTRGNEVTSVMNRAKKAGKSVGVVTTTRVQHASPAGAYAHTVNRNWYSDADLPADAQMNGCQDIAAQLVNNMDIDVILGGGRKYMFPVGTPDPEYPDDASVNGVRKRKQNLVQAWQAKHQGAQYVWNRTALLQAADDSSVTHLMGLFEPADMKYNVQQDHTKDPTLQEMTEVALRVVSRNPRGFYLFVEGGRIDHGHHDDKAYMALTEAGMFDNAIAKANELTSELDTLILVTADHSHVFSFGGYTLRGTSIFGLAPSKALDSKSYTSILYGNGPGYALGGGSRPDVNDSTSEDPSYQQQAAVPQASETHGGEDVAVFARGPQAHLVHGVEEETFVAHIMAFAGCVEPYTDCNLPAPTTATSIPD
modifications: JF646 dye, attached by amine-NHS chemistry (nonspecific labeling; one or two dyes per molecule seen)
stoichiometry N: 2
